Experimental data reported in patent publication US20260008830A1 (FUNDACI CENTRE DE REGULACI GEN MICA, published 2026).
Where a chain is given by its changes, count along the chain named. In names and notes the source's numbering stands.

Key:
Assay in all cases: cell-based or functional assay
[1] = target: T1, IL-10 receptors R1 and R2 on HEK-Blue IL-10 reporter cells (UniProt Q13651 22-578; Q08334 20-325, limits assumed)
T1 sequence (looked up) 1: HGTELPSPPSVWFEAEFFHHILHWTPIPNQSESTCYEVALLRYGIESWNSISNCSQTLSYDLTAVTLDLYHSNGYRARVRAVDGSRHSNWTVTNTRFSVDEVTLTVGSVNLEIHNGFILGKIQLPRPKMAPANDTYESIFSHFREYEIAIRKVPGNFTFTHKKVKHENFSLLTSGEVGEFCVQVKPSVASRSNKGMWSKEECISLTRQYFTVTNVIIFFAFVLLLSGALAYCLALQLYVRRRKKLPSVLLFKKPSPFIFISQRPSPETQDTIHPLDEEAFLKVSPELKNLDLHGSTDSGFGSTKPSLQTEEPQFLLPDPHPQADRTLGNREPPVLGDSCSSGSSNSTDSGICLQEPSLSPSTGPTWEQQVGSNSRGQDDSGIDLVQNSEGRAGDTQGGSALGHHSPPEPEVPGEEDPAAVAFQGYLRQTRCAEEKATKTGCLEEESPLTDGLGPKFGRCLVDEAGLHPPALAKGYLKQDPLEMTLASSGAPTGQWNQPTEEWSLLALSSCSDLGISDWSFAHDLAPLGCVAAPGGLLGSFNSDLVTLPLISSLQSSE
T1 sequence (looked up) 2: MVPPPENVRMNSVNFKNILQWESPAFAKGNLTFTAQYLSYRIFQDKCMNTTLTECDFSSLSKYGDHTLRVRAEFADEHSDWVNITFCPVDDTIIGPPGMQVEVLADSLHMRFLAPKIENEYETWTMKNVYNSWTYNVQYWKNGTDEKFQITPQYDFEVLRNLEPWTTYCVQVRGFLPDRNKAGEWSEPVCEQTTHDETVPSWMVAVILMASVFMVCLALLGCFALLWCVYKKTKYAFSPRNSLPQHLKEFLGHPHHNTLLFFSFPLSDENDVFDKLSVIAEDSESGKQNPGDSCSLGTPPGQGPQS

[2] = target: T2, IL-22 receptors R1 and R2 on HEK-Blue IL-22 reporter cells (UniProt Q8N6P7 16-574; Q08334 20-325, limits assumed)
T2 sequence (looked up) 1: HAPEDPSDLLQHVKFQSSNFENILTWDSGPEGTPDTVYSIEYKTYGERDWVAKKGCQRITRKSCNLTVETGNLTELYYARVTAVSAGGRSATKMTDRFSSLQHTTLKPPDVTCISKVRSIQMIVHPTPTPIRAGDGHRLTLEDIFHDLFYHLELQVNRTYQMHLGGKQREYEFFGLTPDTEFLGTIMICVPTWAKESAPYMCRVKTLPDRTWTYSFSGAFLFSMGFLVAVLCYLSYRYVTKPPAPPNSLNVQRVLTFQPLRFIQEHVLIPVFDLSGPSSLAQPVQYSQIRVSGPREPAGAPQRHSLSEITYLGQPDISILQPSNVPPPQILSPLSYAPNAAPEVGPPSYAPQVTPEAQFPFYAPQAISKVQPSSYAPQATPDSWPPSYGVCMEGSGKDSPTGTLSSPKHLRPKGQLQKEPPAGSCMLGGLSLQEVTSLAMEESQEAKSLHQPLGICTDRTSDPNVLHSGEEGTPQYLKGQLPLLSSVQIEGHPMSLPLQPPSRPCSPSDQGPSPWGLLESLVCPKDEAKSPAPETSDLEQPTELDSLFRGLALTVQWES
T2 sequence (looked up) 2: T1 sequence (looked up) 2

[3] = target: IL-2 receptor on IL-2 reporter HEK blue cells (Human IL-2 & IL-15 Reporter Cells, hkb-il2bg)
[4] = target: T2, IL-22 receptors R1 and R2 on HEK-Blue …; remark: listed apart in the source

IL-2 receptor on IL-2 reporter HEK blue cells (Human IL-2 & IL-15 Reporter Cells, hkb-il2bg), sequence (P14784 whole entry, chain 1 of 2): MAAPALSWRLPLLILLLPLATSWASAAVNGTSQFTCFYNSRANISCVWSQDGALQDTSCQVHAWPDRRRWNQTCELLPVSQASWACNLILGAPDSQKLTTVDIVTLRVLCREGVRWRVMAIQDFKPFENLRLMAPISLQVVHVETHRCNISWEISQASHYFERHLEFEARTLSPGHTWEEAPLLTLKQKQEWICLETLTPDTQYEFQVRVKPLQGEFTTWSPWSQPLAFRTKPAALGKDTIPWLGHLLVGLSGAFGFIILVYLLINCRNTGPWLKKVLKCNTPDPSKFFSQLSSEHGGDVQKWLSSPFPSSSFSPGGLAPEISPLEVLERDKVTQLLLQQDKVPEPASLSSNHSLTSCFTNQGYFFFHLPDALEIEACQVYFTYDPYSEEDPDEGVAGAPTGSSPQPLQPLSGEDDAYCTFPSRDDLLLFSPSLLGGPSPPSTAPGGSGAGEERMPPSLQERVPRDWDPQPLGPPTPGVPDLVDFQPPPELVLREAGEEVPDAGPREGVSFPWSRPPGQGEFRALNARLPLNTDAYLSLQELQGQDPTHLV
IL-2 receptor on IL-2 reporter HEK blue cells (Human IL-2 & IL-15 Reporter Cells, hkb-il2bg), sequence (P31785 whole entry, chain 2 of 2, further chain): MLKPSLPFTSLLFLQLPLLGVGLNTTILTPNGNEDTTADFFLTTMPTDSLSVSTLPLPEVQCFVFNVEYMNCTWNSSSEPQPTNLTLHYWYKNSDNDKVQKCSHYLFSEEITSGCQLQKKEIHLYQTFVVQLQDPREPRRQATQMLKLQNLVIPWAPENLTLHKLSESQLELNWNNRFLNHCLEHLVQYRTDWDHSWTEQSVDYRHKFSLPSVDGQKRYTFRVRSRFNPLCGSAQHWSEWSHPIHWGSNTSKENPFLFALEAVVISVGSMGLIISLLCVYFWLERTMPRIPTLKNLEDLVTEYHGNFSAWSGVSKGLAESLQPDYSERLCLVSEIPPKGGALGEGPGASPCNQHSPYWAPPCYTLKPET

B1: MutSC1_controlcenter_21 (ligand)
chain: KSKAVEQVKNAFNKLQEKGIYKAMSEFDIFINYIEAYMTMNFGGLDYLPNMLRDLRDAFSRVKTFFQMKDQLDNLLLKESLLEDFKGYLGCQALSEMIQFYLEEVMPQAENQDPDIKAHVNSLGENLKTLRLRLRRCHRFLPCENKSKAVEQVKNAFNKLQEKGIYKAMSEFDIFINYIEAYMTMNFGGLDYLPNMLRDLRDAFSRVKTFFQMKDQLDNLLLKESLLEDFKGYLGCQALSEMIQFYLEEVMPQAENQDPDIKAHVNSLGENLKTLRLRLRRCHFLPCEN
[1]
  activation of HEK blue cells, apparent KD fit (drop against MutSC1): ~2.5 fold

B2: ORK22-012 (Foldikine-22, two InterLinkers GGPPPPPPGG) (ligand)
chain: APISESGEIKAIGELDLLFMSLRNACIGGPPPPPPGGAPISSHCRLDKSNFQQPYITNRTFMLAKEASLADNNTDVRLIGEKLFHGVSMSERCYLMKQVLNFTLEEVLFPQSDRFQPYMQEVVPFLARLSNRLSTCHIEGDDLHIQRNVQKLKDTVKKLGESGEIKAIGELDLLFMSLRNACIGGPPPPPPGGAPISSHCRLDKSNFQQPYITNRTFMLAKEASLADNNTDVRLIGEKLFHGVSMSERCYLMKQVLNFTLEEVLFPQSDRFQPYMQEVVPFLARLSNRLSTCHIEGDDLHIQRNVQKLKDTVKKLG
[2]
  EC-50 (IL-22 reporter HEK blue cells, SEAP, absorbance 630 nm): 43.3 pM

B3: ORK2-009 (foldikine-2, two 6 aa InterLinkers GGGSGG) (ligand)
chain: LRPRDLISNINVIVLELKGSETTFMCEYADETATIVEFLNRWITFCQSIISTLTGGGSGGTKKTQLQLEHLLLDLQMILNGINNYKNPKLTRMLTFKFYMPKKATELKHLQCLEEELKPLEEVLNLAQSKNFHLRPRDLISNINVIVLELKGSETTFMCEYADETATIVEFLNRWITFCQSIISTLTGGGSGGTKKTQLQLEHLLLDLQMILNGINNYKNPKLTRMLTFKFYMPKKATELKHLQCLEEELKPLEEVLNLAQS
[3]
  EC-50 (IL-2 reporter HEK blue cells, SEAP, absorbance 630 nm): 211 pM

B4: ORK2-007 (foldikine-2, two 7 aa InterLinkers GPPPPPG) (ligand)
chain: LRPRDLISNINVIVLELKGSETTFMCEYADETATIVEFLNRWITFCQSIISTLTGPPPPPGTKKTQLQLEHLLLDLQMILNGINNYKNPKLTRMLTFKFYMPKKATELKHLQCLEEELKPLEEVLNLAQSKNFHLRPRDLISNINVIVLELKGSETTFMCEYADETATIVEFLNRWITFCQSIISTLTGPPPPPGTKKTQLQLEHLLLDLQMILNGINNYKNPKLTRMLTFKFYMPKKATELKHLQCLEEELKPLEEVLNLAQS
[3]
  EC-50 (IL-2 reporter HEK blue cells, SEAP, absorbance 630 nm): 184 pM

B5: ORK2-010 (foldikine-2, two 7 aa InterLinkers GGGSGGG) (ligand)
chain: B4 chain with P56G, P57G, P58S, P59G, P60G, P190G, P191G, P192S, P193G, P194G
[3]
  EC-50 (IL-2 reporter HEK blue cells, SEAP, absorbance 630 nm): 190 pM

B6: foldikine-22_1 (SCIL22_1) (ligand)
chain: GCRLDKSNFQQPYITNRTFMLAKEASLADNNTDVRLIGEKLFHGVSMSERCYLMKQVLNFTLEEVLFPQSDRFQPYMQEVVPFLARLSNRLSTCMPGGSKTHIQRNVQKLKDTVKKLGESGEIKAIGELDLLFMSLRNACIANGTLDKSNFQQPYITNRTFMLAKEASLADNNTDVRLIGEKLFHGVSMSERCYLMKQVLNFTLEEVLFPQSDRFQPYMQEVVPFLARLSNRLSRLELLPHIQRNVQKLKDTVKKLGESGEIKAIGELDLLFMSLRNACI
[4]
  apparent Kd in comparison with IL22 WT (HEK-Blue IL-22 reporter): ~4 fold

B7: mutantE_IL22 (A132Y, D43E, S45R, E77Y, T70I, K61W, S64M) (ligand)
chain: APISSHCREDRSNFQQPYITNRTFMLAWEAMLADNNIDVRLIGYKLFHGVSMSERCYLMKQVLNFTLEEVLFPQSDRFQPYMQEVVPFLYRLSNRLSTCHIEGDDLHIQRNVQKLKDTVKKLGESGEIKAIGELDLLFMSLRNACI
[4]
  increase in affinity over wt: 10 fold

B8: mutantD_IL22 (K61W, S64M) (ligand)
chain: B7 chain with E9L, R11K, I37T, Y44E, Y90A
[4]
  increase in affinity over wt: 2 fold

B9: IL22_WT (IL-22 WT expressed in CHO cells) (ligand)
chain: B7 chain with E9L, R11K, W28K, M31S, I37T, Y44E, Y90A
[2]
  EC-50 (IL-22 reporter HEK blue cells, SEAP, absorbance 630 nm): 97.6 pM

B10: ORK2-011 (foldikine-2, two 8 aa InterLinkers GGGSGGGG) (ligand)
chain: LRPRDLISNINVIVLELKGSETTFMCEYADETATIVEFLNRWITFCQSIISTLTGGGSGGGGTKKTQLQLEHLLLDLQMILNGINNYKNPKLTRMLTFKFYMPKKATELKHLQCLEEELKPLEEVLNLAQSKNFHLRPRDLISNINVIVLELKGSETTFMCEYADETATIVEFLNRWITFCQSIISTLTGGGSGGGGTKKTQLQLEHLLLDLQMILNGINNYKNPKLTRMLTFKFYMPKKATELKHLQCLEEELKPLEEVLNLAQS
[3]
  EC-50 (IL-2 reporter HEK blue cells, SEAP, absorbance 630 nm): 171 pM

B11: ORK22-014 (Foldikine-22, two polyGly InterLinkers) (ligand)
chain: APISESGEIKAIGELDLLFMSLRNACIGGGGGGGGGGAPISSHCRLDKSNFQQPYITNRTFMLAKEASLADNNTDVRLIGEKLFHGVSMSERCYLMKQVLNFTLEEVLFPQSDRFQPYMQEVVPFLARLSNRLSTCHIEGDDLHIQRNVQKLKDTVKKLGESGEIKAIGELDLLFMSLRNACIGGGGGGGGGGAPISSHCRLDKSNFQQPYITNRTFMLAKEASLADNNTDVRLIGEKLFHGVSMSERCYLMKQVLNFTLEEVLFPQSDRFQPYMQEVVPFLARLSNRLSTCHIEGDDLHIQRNVQKLKDTVKKLG
[2]
  EC-50 (IL-22 reporter HEK blue cells, SEAP, absorbance 630 nm): 2420 pM

B12: foldikine-22_3 (SCIL22_3) (ligand)
chain: GVRLDKSNFQQPYITNRTFMLAKEASLADNNTDVRLIGEKLFHGVSMSERCYLMKQVLNFTLEEVLFPQSDRFQPYMQEVVPFLARLSNRLKKLMASSDHIQRNVQKLKDTVKKLGESGEIKAIGELDLLFMSLRNACIANGTLDKSNFQQPYITNRTFMLAKEASLADNNTDVRLIGEKLFHGVSMSERCYLMKQVLNFTLEEVLFPQSDRFQPYMQEVVPFLARLSNRLSRLELLPHIQRNVQKLKDTVKKLGESGEIKAIGELDLLFMSLRNACI
[4]
  apparent Kd in comparison with IL22 WT (HEK-Blue IL-22 reporter): ~4 fold

B13: ORK2-008 (foldikine-2, two 8 aa InterLinkers GPPPPPPG) (ligand)
chain: LRPRDLISNINVIVLELKGSETTFMCEYADETATIVEFLNRWITFCQSIISTLTGPPPPPPGTKKTQLQLEHLLLDLQMILNGINNYKNPKLTRMLTFKFYMPKKATELKHLQCLEEELKPLEEVLNLAQSKNFHLRPRDLISNINVIVLELKGSETTFMCEYADETATIVEFLNRWITFCQSIISTLTGPPPPPPGTKKTQLQLEHLLLDLQMILNGINNYKNPKLTRMLTFKFYMPKKATELKHLQCLEEELKPLEEVLNLAQS
[3]
  EC-50 (IL-2 reporter HEK blue cells, SEAP, absorbance 630 nm): 251 pM

B14: 3dlq. Pdb sequence-Hydrophobic core stabilised protein (IL-22hydC) (ligand)
chain: ARLDKSNFQQPYITNRMFMLAKEMSLADNNTDVRLIGEKLFHGVSMSERCYLMKQILNFMLEEVLFPQSDRFQPYMQEVVPFLARLSNRLSTCHIEGDDLHIQRNVQKLKDTVKKLGELGEIKAIGELDLLFMSLRNACI
[4]
  Kd (apparent, HEK-Blue IL-22 reporter): 5.4 pM
  gain in affinity against IL-22 WT (HEK-Blue IL-22 reporter): 2 fold
